Our source for the stoichiometry N and percent trimeric values is publication PMC10543594.

Assay [1] has as its target SARS-CoV-2 Alpha variant spike ectodomain fused to resistin (SARS-CoV-2 | human) (UniProt P0DTC2). Description: SEC-MALS.
Assay [2] deals with SARS-CoV-2 Delta spike ectodomain without trimerization domain (SARS-CoV-2) (UniProt P0DTC2).

Turning to “SARS-CoV-2 Alpha variant spike ectodomain fused to resistin (from UniProt P0DTC2 14-1213)”, the stoichiometry N (as a rule, a count of units in the complex or per binding partner) in assay [1] was found to be 6.

In the case of “SARS-CoV-2 Delta spike ectodomain without trimerization domain (from UniProt P0DTC2 14-1213) (domain or fragment)”, the percent trimeric in assay [2] is 30 to 50%.
